B1: ETS1 (parent)
chain: FSEPSFITESYQTLHPISSEELLS
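Note: lentivirally expressed fusions sorted by FACS into six bins by GFP to DsRed ratio, PSI derived from sequencing read proportions per bin multiplied by bin number.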

Variants of B1 are the subject of this data set. The data set can be described thus: protein stability index of a GFP-peptide fusion (GPS, HEK-293T) (PSI 1-6); higher = more stable. The following applies: c terminus: a fixed tail appended.
Take FSEPSFITNSYQTLHPISSEELLS [E9N]: the protein stability index came to 1.62.
To FSEPSFITYSYQTLHPISSEELLS [E9Y] belongs 1.77; to FSEPSFITRSYQTLHPISSEELLS [E9R], 2.24; to FSEPSFITQSYQTLHPISSEELLS [E9Q], 2.02.
To FSEPSFITISYQTLHPISSEELLS [E9I] belongs 2.57.
To FSEPSFITDSYQTLHPISSEELLS [E9D] belongs 1.88.
For FSEPSFITWSYQTLHPISSEELLS [E9W], the protein stability index stood at 2.06.
For FSEPSFITTSYQTLHPISSEELLS [E9T], the protein stability index amounted to 1.94.
The value for FSEPSFITEDYQTLHPISSEELLS [S10D] was 2.82; that for FSEPSFITELYQTLHPISSEELLS [S10L] was 2.52.
To FSEPSFITECYQTLHPISSEELLS [S10C] belongs 1.53; to FSEPSFITEEYQTLHPISSEELLS [S10E], 3.
To FSEPSFITEHYQTLHPISSEELLS [S10H] belongs 2.06; to FSEPSFITEAYQTLHPISSEELLS [S10A], 1.74; to FSEPSFITEIYQTLHPISSEELLS [S10I], 1.86.
FSEPSFITEGYQTLHPISSEELLS [S10G]: the protein stability index turned out to be 1.72.
Regarding FSEPSFITEFYQTLHPISSEELLS [S10F], the protein stability index came to 1.7.
For FSEPSFITEKYQTLHPISSEELLS [S10K], the protein stability index was 2.25.
The value for FSERSFITESYQTLHPISSEELLS [P4R] was 2.13; that for FSEMSFITESYQTLHPISSEELLS [P4M] was 2.19; that for FSENSFITESYQTLHPISSEELLS [P4N] was 2.99.
To FSETSFITESYQTLHPISSEELLS [P4T] belongs 2.65.
To FSEQSFITESYQTLHPISSEELLS [P4Q] belongs 2.81; to FSEDSFITESYQTLHPISSEELLS [P4D], 3.65.
Consider FSEYSFITESYQTLHPISSEELLS [P4Y], for which the protein stability index is 2.2.
With FSEASFITESYQTLHPISSEELLS [P4A], the protein stability index turned out to be 2.21.
Consider FSEESFITESYQTLHPISSEELLS [P4E], for which the protein stability index came out at 3.19.
The value for FSESSFITESYQTLHPISSEELLS [P4S] was 2.39.
With FSEKSFITESYQTLHPISSEELLS [P4K], the protein stability index was found to be 2.45.
The value for FSEHSFITESYQTLHPISSEELLS [P4H] was 2.54; that for FSEISFITESYQTLHPISSEELLS [P4I] was 1.54.
FSEWSFITESYQTLHPISSEELLS [P4W]: the protein stability index was found to be 2.17.
To FSELSFITESYQTLHPISSEELLS [P4L] belongs 2.03; to FSECSFITESYQTLHPISSEELLS [P4C], 2.2; to FSEGSFITESYQTLHPISSEELLS [P4G], 2.37.
To FSEFSFITESYQTLHPISSEELLS [P4F] belongs 1.92; to FSEVSFITESYQTLHPISSEELLS [P4V], 1.49.
With ESEPSFITESYQTLHPISSEELLS [F1E], the protein stability index turned out to be 4.56.
To DSEPSFITESYQTLHPISSEELLS [F1D] belongs 4.47.
For the variant CSEPSFITESYQTLHPISSEELLS [F1C], the protein stability index stood at 3.52.
The value for YSEPSFITESYQTLHPISSEELLS [F1Y] was 2.1; that for KSEPSFITESYQTLHPISSEELLS [F1K] was 4.06.
To NSEPSFITESYQTLHPISSEELLS [F1N] belongs 4.24; to MSEPSFITESYQTLHPISSEELLS [F1M], 4.
The value for ASEPSFITESYQTLHPISSEELLS [F1A] was 4.17; that for PSEPSFITESYQTLHPISSEELLS [F1P] was 4.23.
With TSEPSFITESYQTLHPISSEELLS [F1T], the protein stability index stood at 4.51.
The value for RSEPSFITESYQTLHPISSEELLS [F1R] was 4.2; that for GSEPSFITESYQTLHPISSEELLS [F1G] was 4.4; that for ISEPSFITESYQTLHPISSEELLS [F1I] was 4.03.
VSEPSFITESYQTLHPISSEELLS [F1V]: the protein stability index amounted to 4.18.
To SSEPSFITESYQTLHPISSEELLS [F1S] belongs 4.07; to LSEPSFITESYQTLHPISSEELLS [F1L], 4.45; to HSEPSFITESYQTLHPISSEELLS [F1H], 4.1.
The value for QSEPSFITESYQTLHPISSEELLS [F1Q] was 4.43; that for WSEPSFITESYQTLHPISSEELLS [F1W] was 3.67; that for FSYPSFITESYQTLHPISSEELLS [E3Y] was 2.23.
To FSAPSFITESYQTLHPISSEELLS [E3A] belongs 2.37.
Turning to FSTPSFITESYQTLHPISSEELLS [E3T], the protein stability index amounted to 2.35.
The value for FSSPSFITESYQTLHPISSEELLS [E3S] was 2.21.
Regarding FSWPSFITESYQTLHPISSEELLS [E3W], the protein stability index is 1.5.
The value for FSDPSFITESYQTLHPISSEELLS [E3D] was 1.74; that for FSNPSFITESYQTLHPISSEELLS [E3N] was 1.87.
To FSGPSFITESYQTLHPISSEELLS [E3G] belongs 2.
To FSCPSFITESYQTLHPISSEELLS [E3C] belongs 1.7.
For FSVPSFITESYQTLHPISSEELLS [E3V], the protein stability index stood at 2.5.
As to FSIPSFITESYQTLHPISSEELLS [E3I], the protein stability index came out at 1.77.
The value for FSLPSFITESYQTLHPISSEELLS [E3L] was 1.81; that for FSMPSFITESYQTLHPISSEELLS [E3M] was 1.9.
To FSRPSFITESYQTLHPISSEELLS [E3R] belongs 2.25.
FSHPSFITESYQTLHPISSEELLS [E3H]: the protein stability index came out at 2.17.
The value for FSQPSFITESYQTLHPISSEELLS [E3Q] was 1.7; that for FSFPSFITESYQTLHPISSEELLS [E3F] was 1.6; that for FSKPSFITESYQTLHPISSEELLS [E3K] was 2.05.
The value for FSPPSFITESYQTLHPISSEELLS [E3P] was 2.9; that for FSEPHFITESYQTLHPISSEELLS [S5H] was 1.58.
To FSEPTFITESYQTLHPISSEELLS [S5T] belongs 2.1.
With FSEPCFITESYQTLHPISSEELLS [S5C], the protein stability index is 1.69.
On to FSEPMFITESYQTLHPISSEELLS [S5M], for which the protein stability index was 2.37.
For the variant FSEPYFITESYQTLHPISSEELLS [S5Y], the protein stability index turned out to be 1.8.
To FSEPKFITESYQTLHPISSEELLS [S5K] belongs 2.14; to FSEPGFITESYQTLHPISSEELLS [S5G], 2.09; to FSEPRFITESYQTLHPISSEELLS [S5R], 2.63.
The value for FSEPIFITESYQTLHPISSEELLS [S5I] was 1.48.
To FSEPNFITESYQTLHPISSEELLS [S5N] belongs 2.34; to FSEPLFITESYQTLHPISSEELLS [S5L], 1.99.
As for FSEPWFITESYQTLHPISSEELLS [S5W], the protein stability index was 2.11.
As for FSEPAFITESYQTLHPISSEELLS [S5A], the protein stability index turned out to be 2.07.
To FSEPQFITESYQTLHPISSEELLS [S5Q] belongs 1.75; to FSEPDFITESYQTLHPISSEELLS [S5D], 2.51.
The value for FSEPVFITESYQTLHPISSEELLS [S5V] was 1.91.
The value for FSEPEFITESYQTLHPISSEELLS [S5E] was 2.35; that for FSEPPFITESYQTLHPISSEELLS [S5P] was 2.66.
On to FSEPFFITESYQTLHPISSEELLS [S5F], for which the protein stability index was 2.26.

Values taken from the supplement of paper PMC10567573.
